Target: the molecule itself
Assay: nonreducing SDS-PAGE + capillary gel electrophoresis (2100 Bioanalyzer); purified His6-tagged BsTrxA proteins alone, ~2.5 μg a lane, nonreducing conditions (no DTT, no AMS); peak integration for dimer-to-monomer ratios; dimer to monomers (Fig. 2a)

Protein | stoichiometry N
C32S single-mutant BsTrxA, C-terminal His6-tag (enzyme, B. subtilis 168, UniProt P14949 1-104, looked up, In the homodimer the two chains are joined by a Cys29-Cys29 disulfide bond (crystal structure 2VOC); Vector probably adds Leu-Glu before His6 (surmised); also called C32S BsTrxA; TrxA C32S; source: E. coli BL21(DE3), purified (nickel IMAC HisTrap HP, Superdex 75 gel filtration); not shown: His6, C-terminal, kept) MAIVKATDQSFSAETSEGVVLADFWAPWCGPSKMIAPVLEELDQEMGDKLKIVKIDVDENQETAGKYGVMSIPTLLVLKDGEVVETSVGFKPKEALQELVNKHL | 2
C29S single-mutant BsTrxA, C-terminal His6-tag (enzyme, B. subtilis 168, UniProt P14949 1-104, looked up, Vector probably adds Leu-Glu before His6 (surmised); also called C29S BsTrxA; BsTrxA(C29S); source: E. coli BL21(DE3), purified (nickel IMAC HisTrap HP, Superdex 75 gel filtration); not shown: His6, C-terminal, kept) MAIVKATDQSFSAETSEGVVLADFWAPWSGPCKMIAPVLEELDQEMGDKLKIVKIDVDENQETAGKYGVMSIPTLLVLKDGEVVETSVGFKPKEALQELVNKHL | 2
